Experimental data reported in paper PMC6360386 (2018).

B1: Flag and GFP-fused PKN3 WT (mouse) [mouse] / p130Cas, endogenous in MDA-MB-231 cells [human (endogenous in MDA-MB-231)] (parent complex)
chain 1: MEHRKPGTGQRAPKDEKEMVRRAIQKELKIKEGMENMRRVATDRRHLGHVQQLLRASNRRLEQLHGELRELHAQVLLPASAEPVTSEPQPRAEQSRARLSEALHRQLQVELKVKQGAENMIHTCASGTPKERKLLAAAQQMLKDSQLKVALLRMKISSLESSGSPEPGPDLLAEELQHRLRVEAAVAAGAKNVVKLLGGQRMQDRKALAEAQAQLQESSQKLDLLRLALELLLERLPPTHSLRSRVTQELWMAMLGNPQPLGTLVKPIALTGTLQVRLLGCKDLLVAVPGRSPMAVLAGSPSESWLRTRSRQQRGGGELASEVLAVLKVDNRVVGQTGWGLVAEKSWDQSFIISLDRARELEIGVHWRDWRQLCGVAFLKLEDFLDNACHQLSLSLVPQGRLFAQVTFCEPVIERRPRLQRQRCIFSKRRGRDFMRASQMNLSMAAWGRLVMSLLPPCSSPNTASPPKGRPSTAVCGTPSAASPSNFLPMKTLSKEDTKPPPKPPRLYLQEPAPGTPCTKRPHMDPRPAVVPALAALSTRKPPRLQDFRCLAVLGRGHFGKVLLVQYKGTGKYYAIKALKKQEVLGRDEIDSLYCEKRILETVGRTGHPFLLSLLACLQTSSHACFVTEFLPGGDLMAQIHEDVFPEPQACFYLACVVLGLQFLHEKRIIYRDLKLDNLLLDAQGFLKIADFGLCKEGIGFGDRTSTFCGTPEFLAPEVLTQEAYTRAVDWWGLGVLLYEMLVGECPFPGDTEEEVFECIVSADVPCPHFLSVQGLELIQKLLQKSPEKRLGAGERDAEEIKVQPFFRTTNWQALLARTVQPPFVPTLCGPADLRYFEGEFTSLPPTLTPPVSQSSLTARQQAAFRDFDFVSEQFLES
chain 2: MNHLNVLAKALYDNVAESPDELSFRKGDIMTVLEQDTQGLDGWWLCSLHGRQGIVPGNRLKILVGMYDKKPAGPGPGPPATPAQPQPGLHAPAPPASQYTPMLPNTYQPQPDSVYLVPTPSKAQQGLYQVPGPSPQFQSPPAKQTSTFSKQTPHHPFPSPATDLYQVPPGPGGPAQDIYQVPPSAGMGHDIYQVPPSMDTRSWEGTKPPAKVVVPTRVGQGYVYEAAQPEQDEYDIPRHLLAPGPQDIYDVPPVRGLLPSQYGQEVYDTPPMAVKGPNGRDPLLEVYDVPPSVEKGLPPSNHHAVYDVPPSVSKDVPDGPLLREETYDVPPAFAKAKPFDPARTPLVLAAPPPDSPPAEDVYDVPPPAPDLYDVPPGLRRPGPGTLYDVPRERVLPPEVADGGVVDSGVYAVPPPAEREAPAEGKRLSASSTGSTRSSQSASSLEVAGPGREPLELEVAVEALARLQQGVSATVAHLLDLAGSAGATGSWRSPSEPQEPLVQDLQAAVAAVQSAVHELLEFARSAVGNAAHTSDRALHAKLSRQLQKMEDVHQTLVAHGQALDAGRGGSGATLEDLDRLVACSRAVPEDAKQLASFLHGNASLLFRRTKATAPGPEGGGTLHPNPTDKTSSIQSRPLPSPPKFTSQDSPDGQYENSEGGWMEDYDYVHLQGKEEFEKTQKELLEKGSITRQGKSQLELQQLKQFERLEQEVSRPIDHDLANWTPAQPLAPGRTGGLGPSDRQLLLFYLEQCEANLTTLTNAVDAFFTAVATNQPPKIFVAHSKFVILSAHKLVFIGDTLSRQAKAADVRSQVTHYSNLLCDLLRGIVATTKAAALQYPSPSAAQDMVERVKELGHSTQQFRRVLGQLAAA

Variants of: B1
Assay: co-immunoprecipitation (IP anti-Flag sepharose, IB anti-p130Cas); MDA-MB-231 cells, transient transfection; parent: 1

Going from chain 1 K577E to chain 1 P501A, chain 1 K503S, chain 1 P504A, the ratio to parent falls from 0.8 to 0.2.
